Molecular target: Gi-GPCRs on endothelial cells
Assay: cell-based or functional assay

inhibition of forskolin-stimulated cAMP production, 25 and 100 nM uncleaved GlyRS: 10%
Substance: Full-length recombinant human GlyRS (from UniProt P41250 55-739) (enzyme)

From US20100028352A1
